Test results reported in patent US11739161B2, “Methods for treating and diagnosing prostate cancer” (Tufts Medical Center, Inc., priority 2017, dated 2023).

Tests used:
Assay type in all cases: cell-based, human
DU145 cells [1] = test: RNASE4-induced cell proliferation (MTT assay); conditions: exogenous RNASE4 1 μg/ml, DU145, 2% FBS
Protocol: FIGS. 10A-E. RNASE4 induces prostate cancer cell proliferation and phosphorylation of AKT and S6. (A and B) Exogenous RNASE4 (1 μg/ml) stimulates cell proliferation (A) and cell cycle progression (B) of DU145 cells cultured in the presence of 2% FBS. Cell numbers were determined by MTT assay. Cell cycle status was determined by flow cytometry after 24 hour incubation with RNASE4. (C) Time course of AKT and S6 phosphorylation of serum-starved DU145 cells by RNASE4 (1 μg/ml). Left panels, immunoblots; right panels, quantification of p-AKT and p-S6 normalized to total AKT and S6 by Image J analysis. […] Cells were pre-incubated with the inhibitors at the indicated concentrations for 1 hour prior to be stimulated by 1 μg/ml of RNASE4 for 5 minutes. Top panels, immunoblots; bottom panels, Image J quantification of p-AKT and p-S6 normalized to total AKT and S6. (E) Effect of AKT inhibitor MK-2206, PI3K inhibitors Wortmannin and LY294002, and mTOR inhibitor Rapamycin on RNASE4-induced cell proliferation. DU145 cells were serum-starved overnight, incubated with the inhibitors for 1 hour, and then treated with RNASE4 (1 μg/ml) for three days. Cell numbers were determined by MTT assay. Data shown are from a representative experiments in triplicates of 3 independent repeats. Error bars indicate SEM. **P≤0.01, by unpaired two-tailed Student's t test.
FIGS. 12A-F. RNASE4 induces AXL phosphorylation. (A) Human phospho-receptor tyrosine kinase (RTK) antibody array analysis. Serum-starved DU145 cells were treated with or without 1 μg/ml of RNASE4 for 5 minutes. […] Cell lysates were analyzed by antibodies against total AXL and phospho-AXL, with β-actin as the loading control. Left panels, immunoblots; right panel, Image J quantification of p-AXL normalized to total AXL. […] Left panels, immunoblots; right panel, quantification. […] Cell numbers were determined by MTT assay. […] Cell lysates were analyzed for AKT and P6 phosphorylation by immunoblotting. Top panels, immunoblots; bottom panels, quantification of phospho-AKT and phospho-S6 by Image J analyses normalized to total AKT and P6, respectively. […]

DU145 cells [2] = test: RNASE4 knockdown, cell proliferation (Coulter counter); conditions: DU145, exogenous RNASE4 1 μg/ml
Description: FIGS. 14A-D. RNASE4 knockdown inhibits DU145 cell proliferation in vitro and colony formation in soft agar. (A) Immunoblot analysis of RNASE4 in DU145 cells stably transfected with shControl, shRNASE4-1, and shRNASE4-2. (B) qRT-PCR analysis of RNASE4 mRNA normalized to GAPDH in DU145 cells stably transfected with shControl, shRNASE4-1, and shRNASE4-2. (C) Effect of RNASE4 knockdown on cell proliferation. Cell numbers were counted by Coulter counter. Exogenous RNASE4, when presented, was at the concentration of 1 μg/ml. Data shown are from a representative experiment in triplicates of 3 independent experiments. (D) Effects of RNASE4 knockdown on colonies formation and growth of DU145 cells in soft agar. The same numbers of control and RNASE4 knockdown cells were seeded in soft agar, and grown in the absence or presence of 1 μg/ml of RNASE4 for 14 days. Colonies were counted and size measured on a Nikon Eclipse ti microscope. Top panels, representative images of colonies; scale bars=100 μm. Bottom panels, quantification of DU145 cell colonies and sizes in soft agar. Data shown are means±SEM of five randomly selected fields per dish from a representative experiment. **P≤0.01 and ***P≤0.001, by two-tailed Student's t test.
(§1) Lentiviral mediated shRNA system (pGIPZ, Open Biosystems) was used to generate control and RNASE4 knockdown cell lines. […]

LNCaP cells = test: RNASE4 knockdown, colony formation in soft agar; conditions: exogenous RNASE4 1 μg/ml, 14 days
Description: FIGS. 15A-D. RNASE4 knockdown inhibits LNCaP cell proliferation in vitro and colony formation in soft agar. (A) Immunoblot analysis of RNASE4 in LNCaP cells stably transfected with shControl, shRNASE4-1, and shRNASE4-2. (B) qRT-PCR analysis of RNASE4 mRNA normalized to GAPDH in LNCaP cells stably transfected with shControl, shRNASE4-1, and shRNASE4-2. (C) Effect of RNASE4 knockdown on LNCaP cell proliferation. Cell numbers were counted by Coulter counter. Exogenous RNASE4, when presented, was at the concentration of 1 μg/ml. Data shown are from a representative experiment in triplicates of 3 independent experiments. (D) Effects of RNASE4 knockdown on colonies formation and growth of LNCaP cells in soft agar. The same numbers of control and RNASE4 knockdown cells were seeded in soft agar, and grown in the absence or presence of 1 μg/ml of RNASE4 for 14 days. Colonies were counted and size measured on a Nikon Eclipse ti microscope. Top panels, representative images of colonies; scale bars=100 μm. Bottom panels, quantification of LMCaP cell colonies and sizes in soft agar. Data shown are means±SEM of five randomly selected fields per dish from a representative experiment. **P≤0.01 and ***P≤0.001, by two-tailed Student's t test.
as §1

B1: RNASE4: recombinant human RNASE4 protein from pET11 expression in E. coli, purified by reversed-phase HPLC; added exogenously (protein, UniProt P34096 29-147, looked up)
Ribonuclease 4: QDGMYQRFLRQHVHPEETGGSDRYCNLMMQRRKMTLYHCKRFNTFIHEDIWNIRSICSTTNIQCKNGKMNCHEGVVKVTDCRDTGSSRAPNCRYRAIASTRRVVIACEGNPQVPVHFDG
cell proliferation (DU145 cells [1]): stimulates | rescue of the effect of RNASE4 knockdown on cell proliferation (DU145 cells [2]): able to rescue | rescue of the effect of RNASE4 knockdown on colony formation (LNCaP cells): able to rescue
